Molecular target: cancer-testis antigen Ny-ESO-1 peptide on HLA-A*02:01 (human)
Experiment: NFAT-luciferase, TCR-KO CD8+ Jurkat

1G4_a95LY TCR
EC50 of peptide: 50 pM

From paper PMC8646365
